These results are taken from paper PMC12238573 (Nature Communications, 2025).

Series [1] concerns the target Branchiostoma lanceolatum Class II PRPS (Branchiostoma lanceolatum). Kind of series: SEC; lysate of HEK293T cells with exogenously expressed Class II PRPS; fractions analysed by Western blot. (In gel filtration, larger molecules generally elute earlier.)
Series [2] deals with the molecule itself. Kind of series: SEC; native whole-cell lysates of NIH3T3 AP1 KO and AP1/AP2 KO cells on Yarra SEC-2000 (1 kDa to 300 kDa); fractions analysed by Western blot.

For orientation: stoichiometry N means the number of molecules, sites or subunits per partner or assembly. In turn, “Branchiostoma lanceolatum Class II PRPS (enzyme)” came in with a stoichiometry N in series [1] of 2 to 6.

B1: PRPS2 (endogenous, mouse) (enzyme, UniProt Q9CS42 1-318, looked up)
chain: MPNIVLFSGSSHQDLSQRVADRLGLELGKVVTKKFSNQETSVEIGESVRGEDVYIIQSGCGEINDNLMELLIMINACKIASSSRVTAVIPCFPYARQDKKDKSRAPISAKLVANMLSVAGADHIITMDLHASQIQGFFDIPVDNLYAEPAVLQWIRENITEWRNCIIVSPDAGGAKRVTSIADRLNVEFALIHKERKKANEVDRMVLVGDVKDRVAILVDDMADTCGTICHAADKLLSAGATKVYAILTHGIFSGPAISRINSAAFEAVVVTNTIPQEDKMKHCSKIQVIDISMILAEAIRRTHNGESVSYLFSHVPL
notes: PRPS2, endogenous in mouse cells and tissues; also called P2; phosphoribosyl pyrophosphate synthetase 2; source: endogenous, NIH3T3 lysate (parental and CRISPR knockout lines); endogenous, C57BL/6 mouse liver, kidney and lung lysates
As to B1, the “stoichiometry N” value in series [2] amounted to 2.
